Test results taken from US9717715B2, “Method of combination therapy using an anti-C-Met antibody” (SAMSUNG ELECTRONICS CO., LTD., dated 2017).
Substitutions are numbered along the chain they refer to.

B1: huAbF46-H4-A1 (U6-HC7) (antibody)
heavy: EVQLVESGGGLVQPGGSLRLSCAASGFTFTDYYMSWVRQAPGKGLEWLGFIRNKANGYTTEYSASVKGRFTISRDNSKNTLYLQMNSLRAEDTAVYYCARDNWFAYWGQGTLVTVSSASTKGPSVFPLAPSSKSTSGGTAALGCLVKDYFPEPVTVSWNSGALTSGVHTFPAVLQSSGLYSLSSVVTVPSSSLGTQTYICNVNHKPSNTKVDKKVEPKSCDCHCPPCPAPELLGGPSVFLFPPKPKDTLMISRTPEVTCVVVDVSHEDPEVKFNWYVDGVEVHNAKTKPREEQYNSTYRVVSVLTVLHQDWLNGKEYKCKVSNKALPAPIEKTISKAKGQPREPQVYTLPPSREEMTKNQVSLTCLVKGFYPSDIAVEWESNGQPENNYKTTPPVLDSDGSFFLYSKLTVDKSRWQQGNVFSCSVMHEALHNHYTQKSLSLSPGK
light: DIQMTQSPSSLSASVGDRVTITCKSSQSLLASGNQNNYLAWYQQKPGKAPKMLIIWASTRVSGVPSRFSGSGSGTDFTLTISSLQPEDFATYYCQQSYSRPYTFGQGTKVEIKRTVAAPSVFIFPPSDEQLKSGTASVVCLLNNFYPREAKVQWKVDNALQSGNSQESVTEQDSKDSTYSLSSTLTLSKADYEKHKVYACEVTHQGLSSPVTKSFNRGEC
B2: huAbF46-H4-A1 (IgG2 hinge) (antibody)
heavy: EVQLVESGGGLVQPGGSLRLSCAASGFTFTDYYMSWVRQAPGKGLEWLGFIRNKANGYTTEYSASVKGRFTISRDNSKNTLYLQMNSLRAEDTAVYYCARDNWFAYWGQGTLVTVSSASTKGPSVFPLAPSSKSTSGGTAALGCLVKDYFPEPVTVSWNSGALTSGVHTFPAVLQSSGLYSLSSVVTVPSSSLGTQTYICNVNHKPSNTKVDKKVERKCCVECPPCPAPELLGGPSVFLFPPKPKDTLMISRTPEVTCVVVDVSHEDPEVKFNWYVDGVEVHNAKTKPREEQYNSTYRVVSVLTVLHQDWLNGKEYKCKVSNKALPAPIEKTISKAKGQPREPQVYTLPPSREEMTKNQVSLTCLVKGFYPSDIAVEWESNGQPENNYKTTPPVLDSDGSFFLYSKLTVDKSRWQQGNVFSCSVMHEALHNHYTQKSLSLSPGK
light: B1 light
B3: huAbF46-H4-A1 (IgG2 Fc) (antibody)
heavy: EVQLVESGGGLVQPGGSLRLSCAASGFTFTDYYMSWVRQAPGKGLEWLGFIRNKANGYTTEYSASVKGRFTISRDNSKNTLYLQMNSLRAEDTAVYYCARDNWFAYWGQGTLVTVSSASTKGPSVFPLAPCSRSTSESTAALGCLVKDYFPEPVTVSWNSGALTSGVHTFPAVLQSSGLYSLSSVVTVPSSNFGTQTYTCNVDHKPSNTKVDKTVERKCCVECPPCPAPPVAGPSVFLFPPKPKDTLMISRTPEVTCVVVDVSHEDPEVQFNWYVDGVEVHNAKTKPREEQFNSTFRVVSVLTVVHQDWLNGKEYKCKVSNKGLPAPIEKTISKTKGQPREPQVYTLPPSREEMTKNQVSLTCLVKGFYPSDIAVEWESNGQPENNYKTTPPMLDSDGSFFLYSKLTVDKSRWQQGNVFSCSVMHEALHNHYTQKSLSLSPGK
light: B1 light
B4: humanized antibody huAbF46 (H4-heavy chain and H4-light chain) (antibody, V domains shown)
VH: EVQLVESGGGLVQPGGSLRLSCAASGFTFTDYYMSWVRQAPGKGLEWLGFIRNKANGYTTEYSASVKGRFTISRDNSKNTLYLQMNSLRAEDTAVYYCARDNWFAYWGQGTLVTVSS
VL: DIQMTQSPSSLSASVGDRVTITCKSSQSLLASGNQNNYLAWHQQKPGKAPKMLIIWASTRVSGVPSRFSGSGSGTDFTLTISSLQPEDFATYYCQQSYSAPLTFGQGTKVEIKR
B5: L3-11Y (antibody, V domains shown)
VH: B4 VH
VL: B4 VL with S32W, H42Y, A100R, L102Y
B6: huAbF46-H4-A1 (antibody, V domains shown)
VH: B4 VH
VL: B4 VL with A100R, L102Y

Key:
[1] = molecular target: c-Met on human cancer cells (human, UniProt P08581); test: cell-based or functional assay
human c-Met protein [2] = molecular target: T1, human c-Met protein (human, UniProt P08581); test: SPR (Biacore), antibody immobilised on CM5 chip, human c-Met protein injected at 0.39-100 nM
human c-Met protein [3] = molecular target: T1, human c-Met protein; test: SPR (Biacore), by the method of Example 8

| Binder | Akt phosphorylation (%) in Caki-1 cells, 5 ug/ml, 30 min [1] | relative cell viability (%) of MKN45 cells, 72 h [1] | Kd (human c-Met protein [2]) | koff (human c-Met protein [2]) | kon (human c-Met protein [2]) | Kd (human c-Met protein [3]) |
| --- | --- | --- | --- | --- | --- | --- |
| B1 | ≤ 18% | ~60% | – | – | – | – |
| B2 | ≤ 18% | ~60% | – | – | – | – |
| B3 | ≤ 18% | ~60% | – | – | – | – |
| B4 | 29.1% | 77% | 2.19 nM | 0.000723 s⁻¹ | 329000 M⁻¹ s⁻¹ | – |
| B5 | – | – | – | – | – | < 0.01 nM |
| B6 | 15.3% | 74% | 0.06 nM | 4.53e-05 s⁻¹ | 739000 M⁻¹ s⁻¹ | – |
